# According to US20160304570A1:
# Non-standard residues stand in square brackets, D forms with d. Groups on a side chain read outwards from the residue. Primed or numbered codes have the meaning given here. No end group written: not given here. *: point of attachment. X2 = ((2-hydroxyethyl)thio)acetamide, O=C(CSCCO)*; PEG11′ = not defined here; 4‑Pen = not defined here; Pra = C#CC[C@H](N)C(=O)O; Nva = CCC[C@H](N)C(=O)O; Abu = CC[C@H](N)C(=O)O; Atz = not defined here
# Key:
# Assay in all cases: cell-based or functional assay
# [1] = biological target: human voltage-gated sodium channel Nav1.3 (human) (UniProt Q9NY46)
# [2] = biological target: human Nav1.5 voltage-gated sodium channel (human) (UniProt Q14524)
# [3] = biological target: human Nav1.4 voltage-gated sodium channel (human) (UniProt P35499)
# [4] = biological target: human Nav1.3 voltage-gated sodium channel (human) (UniProt Q9NY46)
# [5] = biological target: human Nav1.7 voltage-gated sodium channel (human) (UniProt Q15858)
# [6] = biological target: human voltage-gated sodium channel Nav1.7 (human) (UniProt Q15858)
# [7] = biological target: human voltage-gated sodium channel Nav1.5 (human) (UniProt Q14524)
# [8] = biological target: human voltage-gated sodium channel Nav1.4 (human) (UniProt P35499)
# Chain of human voltage-gated sodium channel Nav1.4 (human) (P35499 whole entry): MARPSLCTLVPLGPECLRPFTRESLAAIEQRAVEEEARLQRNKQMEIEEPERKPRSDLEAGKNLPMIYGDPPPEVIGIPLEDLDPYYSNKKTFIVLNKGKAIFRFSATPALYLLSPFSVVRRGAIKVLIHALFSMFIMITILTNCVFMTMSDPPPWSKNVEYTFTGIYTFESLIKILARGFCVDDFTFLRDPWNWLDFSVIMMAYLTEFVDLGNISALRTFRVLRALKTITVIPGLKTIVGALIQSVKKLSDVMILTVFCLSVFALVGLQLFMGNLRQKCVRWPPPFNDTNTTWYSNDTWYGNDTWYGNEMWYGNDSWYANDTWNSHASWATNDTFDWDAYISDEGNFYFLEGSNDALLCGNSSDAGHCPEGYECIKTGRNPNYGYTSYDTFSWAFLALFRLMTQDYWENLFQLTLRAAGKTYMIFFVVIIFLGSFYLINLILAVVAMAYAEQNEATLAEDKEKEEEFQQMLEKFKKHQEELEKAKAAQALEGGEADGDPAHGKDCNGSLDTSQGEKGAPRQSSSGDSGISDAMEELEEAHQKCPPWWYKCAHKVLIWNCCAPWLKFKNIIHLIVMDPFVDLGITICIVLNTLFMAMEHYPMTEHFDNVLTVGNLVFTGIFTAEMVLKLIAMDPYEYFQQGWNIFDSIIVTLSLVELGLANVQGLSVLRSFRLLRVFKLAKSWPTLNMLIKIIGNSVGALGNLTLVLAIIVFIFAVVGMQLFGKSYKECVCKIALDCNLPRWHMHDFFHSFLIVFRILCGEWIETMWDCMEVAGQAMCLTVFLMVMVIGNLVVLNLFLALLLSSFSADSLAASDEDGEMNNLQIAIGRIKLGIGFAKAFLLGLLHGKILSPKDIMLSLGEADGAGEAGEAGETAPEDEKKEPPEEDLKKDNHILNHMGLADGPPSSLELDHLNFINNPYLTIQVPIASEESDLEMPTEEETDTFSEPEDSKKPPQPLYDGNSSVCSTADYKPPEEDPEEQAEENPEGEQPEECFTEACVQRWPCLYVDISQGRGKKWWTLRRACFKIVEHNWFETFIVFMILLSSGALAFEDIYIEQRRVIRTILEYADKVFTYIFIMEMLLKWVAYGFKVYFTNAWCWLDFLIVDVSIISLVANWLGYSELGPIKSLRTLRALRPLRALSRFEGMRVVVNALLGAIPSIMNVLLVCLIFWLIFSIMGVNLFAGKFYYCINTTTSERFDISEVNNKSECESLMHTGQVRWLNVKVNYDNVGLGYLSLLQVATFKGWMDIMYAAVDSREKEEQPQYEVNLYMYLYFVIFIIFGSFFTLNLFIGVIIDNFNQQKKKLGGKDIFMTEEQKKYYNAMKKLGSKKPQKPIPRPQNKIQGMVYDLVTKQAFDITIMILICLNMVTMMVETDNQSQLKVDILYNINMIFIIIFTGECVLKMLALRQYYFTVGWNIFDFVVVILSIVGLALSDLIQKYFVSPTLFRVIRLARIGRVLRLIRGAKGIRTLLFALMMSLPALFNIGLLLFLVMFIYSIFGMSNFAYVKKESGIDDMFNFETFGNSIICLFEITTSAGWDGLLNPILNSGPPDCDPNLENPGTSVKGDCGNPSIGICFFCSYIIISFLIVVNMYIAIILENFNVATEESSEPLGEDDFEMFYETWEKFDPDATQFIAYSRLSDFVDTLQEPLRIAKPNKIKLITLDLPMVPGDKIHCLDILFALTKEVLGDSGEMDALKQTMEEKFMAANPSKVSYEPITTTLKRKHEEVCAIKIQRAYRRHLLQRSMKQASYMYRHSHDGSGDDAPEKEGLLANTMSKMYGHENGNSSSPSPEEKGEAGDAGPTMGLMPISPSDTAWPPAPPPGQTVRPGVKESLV
# Chain of human Nav1.4 voltage-gated sodium channel (human) (P35499 whole entry): as above
# Chain of human voltage-gated sodium channel Nav1.5 (human) (Q14524 whole entry): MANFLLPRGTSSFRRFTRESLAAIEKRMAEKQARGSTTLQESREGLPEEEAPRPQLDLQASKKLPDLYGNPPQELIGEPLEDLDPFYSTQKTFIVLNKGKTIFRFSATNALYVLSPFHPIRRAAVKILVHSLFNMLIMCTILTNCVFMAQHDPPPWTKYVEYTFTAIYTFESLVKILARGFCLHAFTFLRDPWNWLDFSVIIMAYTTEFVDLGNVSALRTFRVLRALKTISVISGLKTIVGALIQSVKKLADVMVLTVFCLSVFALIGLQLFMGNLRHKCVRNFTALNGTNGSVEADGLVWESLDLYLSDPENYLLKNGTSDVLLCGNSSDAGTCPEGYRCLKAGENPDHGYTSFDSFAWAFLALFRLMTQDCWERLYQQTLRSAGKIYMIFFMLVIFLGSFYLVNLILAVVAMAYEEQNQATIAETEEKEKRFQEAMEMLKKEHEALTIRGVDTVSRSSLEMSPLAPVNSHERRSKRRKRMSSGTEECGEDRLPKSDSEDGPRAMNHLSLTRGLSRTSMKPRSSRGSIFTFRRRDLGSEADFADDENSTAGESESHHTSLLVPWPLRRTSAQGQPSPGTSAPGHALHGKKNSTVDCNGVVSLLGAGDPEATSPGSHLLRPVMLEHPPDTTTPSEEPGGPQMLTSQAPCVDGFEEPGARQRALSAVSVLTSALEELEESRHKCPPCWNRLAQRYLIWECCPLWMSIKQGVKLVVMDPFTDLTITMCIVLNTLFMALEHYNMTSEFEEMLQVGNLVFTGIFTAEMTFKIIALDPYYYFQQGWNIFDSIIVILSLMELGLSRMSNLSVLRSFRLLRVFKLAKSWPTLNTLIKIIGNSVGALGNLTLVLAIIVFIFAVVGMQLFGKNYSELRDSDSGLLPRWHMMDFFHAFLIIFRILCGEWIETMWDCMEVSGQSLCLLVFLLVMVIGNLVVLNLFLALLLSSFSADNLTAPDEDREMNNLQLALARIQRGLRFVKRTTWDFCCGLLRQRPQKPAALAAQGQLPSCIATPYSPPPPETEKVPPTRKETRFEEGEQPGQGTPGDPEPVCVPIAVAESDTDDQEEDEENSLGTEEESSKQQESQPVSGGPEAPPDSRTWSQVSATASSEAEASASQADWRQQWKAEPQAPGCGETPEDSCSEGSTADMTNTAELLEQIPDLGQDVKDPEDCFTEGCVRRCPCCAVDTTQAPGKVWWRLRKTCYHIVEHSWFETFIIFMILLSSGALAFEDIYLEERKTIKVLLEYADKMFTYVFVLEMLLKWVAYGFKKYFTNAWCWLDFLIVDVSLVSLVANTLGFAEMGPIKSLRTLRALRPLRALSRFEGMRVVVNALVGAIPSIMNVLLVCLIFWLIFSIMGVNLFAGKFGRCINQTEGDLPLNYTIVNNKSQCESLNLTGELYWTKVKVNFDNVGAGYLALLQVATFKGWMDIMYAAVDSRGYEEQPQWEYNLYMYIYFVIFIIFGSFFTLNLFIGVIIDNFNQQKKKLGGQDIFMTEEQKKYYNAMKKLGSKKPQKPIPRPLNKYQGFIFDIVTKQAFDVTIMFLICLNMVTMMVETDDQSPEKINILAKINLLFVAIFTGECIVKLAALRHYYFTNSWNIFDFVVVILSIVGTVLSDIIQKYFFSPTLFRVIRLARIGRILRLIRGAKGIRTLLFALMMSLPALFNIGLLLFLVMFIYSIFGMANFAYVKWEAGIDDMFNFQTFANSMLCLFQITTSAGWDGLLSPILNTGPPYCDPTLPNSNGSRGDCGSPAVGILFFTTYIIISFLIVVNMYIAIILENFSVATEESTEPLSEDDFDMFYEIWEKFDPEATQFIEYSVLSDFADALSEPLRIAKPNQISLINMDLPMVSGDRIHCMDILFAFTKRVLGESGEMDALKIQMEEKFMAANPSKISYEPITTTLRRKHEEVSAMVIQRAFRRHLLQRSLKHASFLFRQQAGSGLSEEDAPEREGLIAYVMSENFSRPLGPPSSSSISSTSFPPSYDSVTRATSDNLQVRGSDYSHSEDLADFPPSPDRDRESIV
molecule,measurement,setting,value
[Ala5;Phe6;Ile13;Arg28]GpTx-1(1-34)-FreeAcid (peptide),IWQ Use Nav1.3 IC50,[1],3 µM
[Ala5;Phe6;K(Ac-Pra)13;Arg28]GpTx-1(1-34) (peptide),IWQ Use Nav1.5 IC50 (IonWorks Quattro electrophysiology),[2],24.6 µM
same,IWQ Use Nav1.4 IC50 (IonWorks Quattro electrophysiology),[3],18 µM
same,IWQ Use Nav1.3 IC50 (IonWorks Quattro electrophysiology),[4],0.25 µM
same,IWQ Use Nav1.7 IC50 (IonWorks Quattro electrophysiology),[5],0.78 µM
[Ala5;Phe6;Leu13;Arg28]GpTx-1(1-34)-FreeAcid (peptide),IWQ Use Nav1.3 IC50,[1],4.5 µM
same,IWQ Use Nav1.7 IC50,[6],4.5 µM
[Ala5;Phe6;Lys13;Arg28]GpTx-1(1-34)-FreeAcid (peptide),IWQ Use Nav1.3 IC50,[1],0.3 µM
same,IWQ Use Nav1.5 IC50,[7],2.8 µM
same,IWQ Use Nav1.7 IC50,[6],3.6 µM
[Ala5;Phe6;Met13;Arg28]GpTx-1(1-34)-FreeAcid (peptide),IWQ Use Nav1.3 IC50,[1],0.8 µM
same,IWQ Use Nav1.7 IC50,[6],4.7 µM
[Ala5;Phe6;Pra12;Leu26;Arg28]GpTx-1(1-34) (peptide),IWQ Use Nav1.5 IC50 (IonWorks Quattro electrophysiology),[2],36.5 µM
same,IWQ Use Nav1.3 IC50 (IonWorks Quattro electrophysiology),[4],0.12 µM
same,IWQ Use Nav1.7 IC50 (IonWorks Quattro electrophysiology),[5],0.13 µM
[Ala5;Phe6;Pro13;Arg28]GpTx-1(1-34)-FreeAcid (peptide),IWQ Use Nav1.3 IC50,[1],2.9 µM
same,IWQ Use Nav1.7 IC50,[6],2.9 µM
[Ala5;Phe6;Ser13;Arg28]GpTx-1(1-34)-FreeAcid (peptide),IWQ Use Nav1.3 IC50,[1],1.1 µM
[Ala5;Phe6;Thr13;Arg28]GpTx-1(1-34)-FreeAcid (peptide),IWQ Use Nav1.3 IC50,[1],1.3 µM
[Ala5;Phe6;Val13;Arg28]GpTx-1(1-34)-FreeAcid (peptide),IWQ Use Nav1.3 IC50,[1],1.7 µM
[Nva5;Leu6;K(4-Pen)13;Arg28]GpTx-1(1-34) (peptide),IWQ Use Nav1.5 IC50 (IonWorks Quattro electrophysiology),[2],37.5 µM
same,IWQ Use Nav1.3 IC50 (IonWorks Quattro electrophysiology),[4],0.27 µM
same,IWQ Use Nav1.7 IC50 (IonWorks Quattro electrophysiology),[5],0.31 µM
"DCLGALRKCEPD[Atz]([PEG11′-X2])DKCCRPNLVCSRLHRWCKYVF (ends and bridges not checked; also: printed as [Ala5;Leu6,26;Glu10;Atz(PEG11-((2-hydroxyethyl)thio)acetamide)13;Arg28]GpTx-1(1-34)) [[Ala5;Leu6,26;Glu10;Atz(PEG11-((2-hydroxyethyl)thio)acetamide)13;Arg28]GpTx-1(1-34)]","Nav1.5 Use IC50 (PatchXpress electrophysiology, inhibition of sodium current)",[7],> 10 µM
same,"Nav1.7 Use IC50 (PatchXpress electrophysiology, inhibition of sodium current)",[6],0.054 µM
same,"Nav1.4 Use IC50 (PatchXpress electrophysiology, inhibition of sodium current)",[8],> 10 µM
DCLG[Abu]LRKCIPDK(4‑Pen)DKCCRPNLVCSRTHEWCKYVF (ends and bridges not checked) [[2-Abu5;Leu6;K(4-Pen)13;Glu28]GpTx-1(1-34)],IWQ Use Nav1.5 IC50 (IonWorks Quattro electrophysiology),[2],> 5 µM
same,IWQ Use Nav1.4 IC50 (IonWorks Quattro electrophysiology),[3],> 5 µM
same,IWQ Use Nav1.3 IC50 (IonWorks Quattro electrophysiology),[4],4.1 µM
same,IWQ Use Nav1.7 IC50 (IonWorks Quattro electrophysiology),[5],1.8 µM
DCLGALRKCIPDHDKCCRPNLVCSRTHRWCKYVF-OH (ends and bridges not checked) [[Ala5;Leu6;His13;Arg28]GpTx-1(1-34)-FreeAcid],IWQ Use Nav1.3,[1],3.9 µM
same,IWQ Use Nav1.5,[7],> 5 µM
same,IWQ Use Nav1.7,[6],> 5 µM
same,IWQ Use Nav1.4,[8],> 5 µM
"D[Abu]LGALRKCIPDNDKC[Abu]RPNLVCSRTHEWCKYVF (ends and bridges not checked) [[2-Abu2,17;Ala5;Leu6;Glu28]GpTx-1(1-34)]","IWQ Use Nav1.3 (µM) (IC50, IonWorks Quattro population patch clamp)",[1],> 5 µM
same,"IWQ Use Nav1.5 (µM) (IC50, IonWorks Quattro population patch clamp)",[7],> 50 µM
same,"IWQ Use Nav1.7 (µM) (IC50, IonWorks Quattro population patch clamp)",[6],4.3 µM
same,"IWQ Use Nav1.4 (µM) (IC50, IonWorks Quattro population patch clamp)",[8],> 50 µM
"D[Abu]LG[Nva]LRKCIPDNDKC[Abu]RPNLVCSRTHEWCKYVF (ends and bridges not checked) [[2-Abu2,17;Nva5;Leu6;Glu28]GpTx-1(1-34)]","IWQ Use Nav1.3 (µM) (IC50, IonWorks Quattro population patch clamp)",[1],> 5 µM
same,"IWQ Use Nav1.5 (µM) (IC50, IonWorks Quattro population patch clamp)",[7],> 50 µM
same,"IWQ Use Nav1.7 (µM) (IC50, IonWorks Quattro population patch clamp)",[6],> 5 µM
same,"IWQ Use Nav1.4 (µM) (IC50, IonWorks Quattro population patch clamp)",[8],> 50 µM
"D[Abu]LG[Abu]LRKCIPDNDKC[Abu]RPNLVCSRTHEWCKYVF (ends and bridges not checked) [[2-Abu2,5,17;Leu6;Glu28]GpTx-1(1-34)]","IWQ Use Nav1.3 (µM) (IC50, IonWorks Quattro population patch clamp)",[1],> 5 µM
same,"IWQ Use Nav1.5 (µM) (IC50, IonWorks Quattro population patch clamp)",[7],> 50 µM
same,"IWQ Use Nav1.7 (µM) (IC50, IonWorks Quattro population patch clamp)",[6],4.3 µM
same,"IWQ Use Nav1.4 (µM) (IC50, IonWorks Quattro population patch clamp)",[8],> 50 µM
"D[Abu]LGVLRKCIPDNDKC[Abu]RPNLVCSRTHEWCKYVF (ends and bridges not checked) [[2-Abu2,17;Val5;Leu6;Glu28]GpTx-1(1-34)]","IWQ Use Nav1.3 (µM) (IC50, IonWorks Quattro population patch clamp)",[1],> 5 µM
same,"IWQ Use Nav1.5 (µM) (IC50, IonWorks Quattro population patch clamp)",[7],33 µM
same,"IWQ Use Nav1.7 (µM) (IC50, IonWorks Quattro population patch clamp)",[6],> 5 µM
same,"IWQ Use Nav1.4 (µM) (IC50, IonWorks Quattro population patch clamp)",[8],> 50 µM
"DCLGALRKCEPD[Pra]DKCCRPNLVCSRLHRWCKYVF (ends and bridges not checked) [[Ala5;Leu6,26;Glu10;Pra13;Arg28]GpTx-1(1-34)]",IWQ Use Nav1.5 IC50 (IonWorks Quattro electrophysiology),[2],> 50 µM
same,"Nav1.5 Use IC50 (µM), electrophysiology by PatchXpress",[7],> 10 µM
same,"Nav1.7 Use IC50 (µM), electrophysiology by PatchXpress",[6],0.013 µM
same,IWQ Use Nav1.4 IC50 (IonWorks Quattro electrophysiology),[3],> 50 µM
same,"Nav1.4 Use IC50 (µM), electrophysiology by PatchXpress",[8],> 10 µM
same,IWQ Use Nav1.3 IC50 (IonWorks Quattro electrophysiology),[4],1.4 µM
same,IWQ Use Nav1.7 IC50 (IonWorks Quattro electrophysiology),[5],0.7 µM
